The record followed here is article PMC7503845.

Assay [1] has as its target full length recombinant human active CK1 epsilon (CK1ε) (human) (UniProt P49674).
For assay [2] the target is unchanged. This is another data set of the same source.
Assay [3] shares this target. The source holds these as a separate data set.
For assay [4] the target is unchanged. This is another data set of the same source.

Sequence of UniProt P49674 (P49674 whole entry): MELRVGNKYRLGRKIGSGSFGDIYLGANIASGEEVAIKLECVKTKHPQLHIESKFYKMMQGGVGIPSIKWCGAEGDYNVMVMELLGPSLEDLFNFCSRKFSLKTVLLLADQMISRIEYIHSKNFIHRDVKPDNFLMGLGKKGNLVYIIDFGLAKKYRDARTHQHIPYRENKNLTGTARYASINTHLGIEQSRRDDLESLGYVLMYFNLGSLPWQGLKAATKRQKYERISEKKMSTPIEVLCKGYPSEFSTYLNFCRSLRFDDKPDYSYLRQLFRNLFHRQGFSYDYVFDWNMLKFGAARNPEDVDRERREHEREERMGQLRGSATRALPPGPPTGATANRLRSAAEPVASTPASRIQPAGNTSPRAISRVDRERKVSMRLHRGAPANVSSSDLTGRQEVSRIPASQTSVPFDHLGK

Turning to “dephosphorylated native casein mixture (Casein)”, in assay [1], the Km^Casein of the kinase reaction at fixed ATP of 7.5, 15, 30 and 60 μM (4.6, 3.9, 4.8 and 4.0 μM) came to 4.8 µM; the kcat / Km^Casein of the kinase reaction at fixed ATP of 7.5, 15, 30 and 60 μM (2.5, 4.1, 6.3 and 10.8 min^-1 μM^-1) is 180000 M⁻¹ s⁻¹.
In the case of “recombinant human DDX3X wild-type (WT) (from UniProt O00571 1-662) (enzyme)”, the Km of CK1ε for DDX3X in the kinase reaction (33P incorporation; DDX3X 0.06-1 μM, ATP fixed at 30 μM, 25 ng CK1ε, 15 min) in assay [2] is 0.2 µM. Further, in assay [3], the Km^DDX3X of the kinase reaction at fixed ATP of 15, 30, 60 and 120 μM (0.6, 0.5, 0.7 and 0.7 μM) amounted to 0.7 µM; the kcat / Km^DDX3X of the kinase reaction at fixed ATP of 15, 30, 60 and 120 μM (5.5, 8.4, 11.9 and 18.9 min^-1 μM^-1) amounted to 315000 M⁻¹ s⁻¹.

B1: full length recombinant human disheveled 2 (Dvl2) (natural protein)
chain: MAGSSTGGGGVGETKVIYHLDEEETPYLVKIPVPAERITLGDFKSVLQRPAGAKYFFKSMDQDFGVVKEEISDDNARLPCFNGRVVSWLVSSDNPQPEMAPPVHEPRAELAPPAPPLPPLPPERTSGIGDSRPPSFHPNVSSSHENLEPETETESVVSLRRERPRRRDSSEHGAGGHRTGGPSRLERHLAGYESSSTLMTSELESTSLGDSDEEDTMSRFSSSTEQSSASRLLKRHRRRRKQRPPRLERTSSFSSVTDSTMSLNIITVTLNMEKYNFLGISIVGQSNERGDGGIYIGSIMKGGAVAADGRIEPGDMLLQVNDMNFENMSNDDAVRVLRDIVHKPGPIVLTVAKCWDPSPQAYFTLPRNEPIQPIDPAAWVSHSAALTGTFPAYPGSSSMSTITSGSSLPDGCEGRGLSVHTDMASVTKAMAAPESGLEVRDRMWLKITIPNAFLGSDVVDWLYHHVEGFPERREARKYASGLLKAGLIRHTVNKITFSEQCYYVFGDLSGGCESYLVNLSLNDNDGSSGASDQDTLAPLPGATPWPLLPTFSYQYPAPHPYSPQPPPYHELSSYTYGGGSASSQHSEGSRSSGSTRSDGGAGRTGRPEERAPESKSGSGSESEPSSRGGSLRRGGEASGTSDGGPPPSRGSTGGAPNLRAHPGLHPYGPPPGMALPYNPMMVVMMPPPPPPVPPAVQPPGAPPVRDLGSVPPELTASRQSFHMAMGNPSEFFVDVM
Take B1: in assay [4], the Km^Dvl2 of the kinase reaction at fixed ATP of 7.5, 30, 60 and 120 μM (0.5, 1.1, 0.9 and 0.4 μM) came out at 1.1 µM; the kcat / Km^Dvl2 of the kinase reaction at fixed ATP of 7.5, 30, 60 and 120 μM (76.4, 98.8, 159.3 and 261.7 min^-1 μM^-1) turned out to be 4.36e+06 M⁻¹ s⁻¹.
